Laboratory results as given in patent publication US20230220053A1 (published 2023).
Residue numbers refer to the chain shown, from its start.

B1: 2020EP71-E04 scFv (scFv)
scFv: QVQLVQSGGGVVQPGRSLRLSCAASGFTFSSYGMHWVRQAPGKGLEWVAVISYDGSNKYYADSVKGRFTISRDNSKNTLYLQMNSLRAEDTAVYYCAKDRAYYYGYYYYYYGMDVWGQGTTVTVSSGGGGSGGGGSGGGGSQSVLTQPPSVSGAPGQRVTISCTGSSSNIGAGYDVHWYQQLPGTAPKLLIYGNSNRPSGVPDRFSGSKSGTSASLAITGLQAEDEADYYCATWDDSLSGPVFGGGTKVTVL
B2: 2020EP64-C08 scFv (scFv)
scFv: QMQLVQSGAEVKKPGSSVKVSCKASGGTFSSYAISWVRQAPRQGLEWMGRIIPILGIANYAQKFQGRVTITADKSTSTAYMELSSLRSEDTAVYYCASSYGGNQLWGQGTLVTVSSGGGGSGGGGSGGGGSQSVLTQPPSASGTPGQRVTISCSGSDSNIGTNTVNWYQQVPGTAPKVLIYSTHQRPSGVPDRFSASKSGTSASLAISGLQSEDEADYYCSSWDVSLNAWVFGGGTKVTVL
B3: 2020EP66-A07 scFv (scFv)
scFv: EVQLVQSGAEVKKPGSSVKVSCKASGGTFSSYAISWVRQAPGQGLEWMGGIIPIFGTANYAQKFQGRVTITADESTSTAYMELSSLRSEDTAVYYCASGGDGYNYDYYYYGMDVWGQGTTVTVSSGGGGSGGGGSGGGGSSYELTQPPSVSVSPGQTATITCSGEKLGDKYSFWYQQKPGQSPVMVMYQDDQRPSGTPERFSGSNSGNTATLTISGTRATDEADYYCQAWDNSASVFGSGTKLTVL
B4: 2020EP60-A12 scFv (scFv)
scFv: EVQLVESGGGVVQPGRSLRLSCAASGFTFSSYGMHWVRQAPGKGLEWVAVISYDGSNKYYADSVKGRFTISRDNSKNTLYLQMNSLRAEDTAVYYCAKGLEYYFDYWGQGTLVTVSSGGGGSGGGGSGGGGSSYELTQPPSLSVSPGQTARITCSGDALPEQYAYWYQQKPGQAPVLVIYKDSERPSGIPERFSGSSSGTTVTLTISGVQAEDEADYYCQAWDSSTVVFGGGTKLTVL
B5: 2020EP75-E02 scFv (scFv)
scFv: QMQLVQSGAEVKKPGSSVKVSCKASGGTFSSYAISWVRQAPGQGLEWMGGIIPIFGTANYAQKFQGRVTITADKSTSTAYMELSSLRSEDTAVYYCARPRDYRAQYYFDYWGQGTLVTVSSGGGGSGGGGSGGGGSDIVMTQSPSSLSASVGDRVTITCRAGQDIDTSVNWYQLKPGKAPRLLIYASSSLQTGVPSRFSGGGSGAEFTLTISSLQPEDFATYFCQQTFSTSVTFGGGTKVEIK
B6: 2020EP61-A08 scFv (scFv)
scFv: QVQLVQSGAEVKKPGASVKVSCKASGYTFTSYYMHWVRQAPGQGLEWMGIINPSGGSTSYAQKFQGRVTMTRDTSTSTVYMELSSLRSEDTAVYYCARESGNYYYDSSGYTFDYWGQGTLVTVSSGGGGSGGGGSGGGGSSYVLTQPLSVSVALGQTARITCGGNNIGSKNVHWYQQKPGQAPVLVIYYDSDRPSGIPERFSGSNSGNTATLTISGTQAMDEADYYCQAWDSSTVVFGGGTKLTVL
B7: 2020EP60-F05 scFv (scFv)
scFv: QVQLVESGGGVVQPGGSLRLSCAASGFTFSSYGMHWVRQAPGKGLEWVAVISYDGSNKYYADSVKGRFTISRDNSKNTLYLQMNSLRAEDTAVYYCAKARVALGYFDWLLYDGMDVWGQGTTVTVSSGGGGSGGGGSGGGGSSSELTQPPSVSVSPGQTASITCSGDKLGNKYVFWYQQKPGQSPILVIYQDNRRPSGIPERFSGSNSGNTATLTISGDPAMDEADYYCQAWDSSTVVFGGGTKLTVL
B8: 2020EP54-H01 scFv (scFv)
scFv: QVQLVESGGGVVQPGRSLRLSCAASGFTFSSYGMHWVRQAPGKGLEWVAVISYDGSNKYYADSVKGRFTISRDNSKNTLYLQMNSLRAEDTAVYYCAKGRGWYLDYWGQGTLVTVSSGGGGSGGGGSGGGGSNFMLTQPPSVSVSPGQTASITCSGDKLGDKYACWYQQKPGQSPVLVMYEDYKRPSGIPARFSGSNSGNTATLTISRVEGGDEGDYYCQVWDSRGPEVIFGGGTKLTVL
notes: also called 2020EP054-H01
B9: 2020EP66-D03 scFv (scFv)
scFv: QVQLQQWGAGLLKPSETLSLTCAVYGGSFSGYYWSWIRQPPGKGLEWIGEINHSGSTNYNPSLKSRVTISVDTSKNQFSLKLSSVTAADTAVYYCARGPPLWNYGKGFDYWGQGTLVTVSSGGGGSGKGGSGGGGSQPVLTQPPSASGTPGQRVTISCSGSSSNIGSNYVYWYQQLPRTAPKLLIYRNNQRPSGVPDRFSGSKSGTSASLAISGLRSEDEADYYCAAWDDSLSAWVFGGGTKLTVL
B10: 2020EP53-D06 scFv (scFv)
scFv: QVQLVQSGGGVVQPGRSLRLSCAASGFTFSSYAMHWVRQAPGKGLEWVAVISYDGSNKYYADSVKGRFTISRDNSKNTLYLQMNSLRAEDTAVYYCARDGEDGYNYISPFDYWGQGTLVTVSSGGGGSGGGGSGGGGSSYELTQPPSVSVAPGETARITCRGNDIGSKSVHWYQQKPGQAPVLVLYYDSDRPSGIPERFSGSNSGNTATLTISSVEAGDEADYYCQVWDIDVVFGGGTKLTVL
B11: 2020EP64-G10 scFv (scFv)
scFv: B10 scFv with G137R, Q226H
B12: 2020EP54-B02 scFv (scFv)
scFv: QVQLVQSGAEVKKPGASVKVSCKASGYTFIGYYMHWMRQAPGQGLEWMGRINPNSGGTNYAEKFQGRVTMTRDTSISTAYMELSRLTFNDTAVYYCARWDSSSWKFDSWGQGTLVTVSSGGGGSGGGGSGGGGSEIVLTQSPSSLSASVGDRVTITCQASQDISNYLNWYQQKPGKAPKLLIYDASNLETGVPSRFSGSGSGTDFTFTISSLQPEDIATYYCQQYDNLPITFGQGTRLEIK

Target: T1, S1 protein of SARS-CoV-2 (recombinant, construct not stated) (SARS-CoV-2, UniProt P0DTC2 16-685)
Assay: ELISA, S1 coated, scFv titrated, anti-Flag HRP

First: B1
Second: B2
The EC50 of the first is 8-fold lower: 5.03 nM for the first, 40.2 nM for the second.

First: B3
Second: B4
The EC50 of the first is 52-fold lower: 0.525 nM for the first, 27.3 nM for the second. The first is the more potent here.

Compared with B5, B6 is 26-fold higher in EC50: 0.225 nM for the first, 5.74 nM for the second. The first is the more potent here.

Going from B7 to B8, the EC50 rises from 1.38 nM to 20.4 nM (15-fold).

B9 and B10 are within 1.5-fold of each other in EC50: 0.514 nM for the first, 0.511 nM for the second.

B11 showed an EC50 of 0.936 nM.

Target: S1-Fc (SARS-CoV-2 S1 protein, Fc fusion) (SARS-CoV-2, UniProt P0DTC2 16-685)
Assay: SPR (Biacore T200), S1 captured on anti-human Fc chip, scFv injected

First: B1
Second: B2
The Kd of the first is 2-fold lower: 37.6 nM for the first, 73.6 nM for the second.

Going from B3 to B12, the Kd rises from 2.3 nM to 91.8 nM (40-fold).

First: B5
Second: B8
The Kd of the first is 12-fold lower: 4.46 nM for the first, 52.5 nM for the second. The first binds more tightly here.

First: B9
Second: B10
The Kd of the first is 2.5-fold higher: 19.5 nM for the first, 7.84 nM for the second.

Binder B11 has a Kd of 11.2 nM.

First: B1
Second: B2
The koff of the first is 3.6-fold lower: 0.0019 s⁻¹ for the first, 0.00693 s⁻¹ for the second.

First: B3
Second: B12
The koff of the first is 2.6-fold lower: 0.00142 s⁻¹ for the first, 0.00366 s⁻¹ for the second.

Going from B5 to B8, the koff rises from 0.00174 s⁻¹ to 0.0052 s⁻¹ (3-fold).

B9 and B10 are within 1.5-fold of each other in koff: 0.00256 s⁻¹ for the first, 0.00204 s⁻¹ for the second.

B11 gave a koff of 0.00242 s⁻¹.

Compared with B1, B2 is 1.9-fold higher in kon: 50600 M⁻¹ s⁻¹ for the first, 94100 M⁻¹ s⁻¹ for the second.

Compared with B3, B12 is 15-fold lower in kon: 614000 M⁻¹ s⁻¹ for the first, 39900 M⁻¹ s⁻¹ for the second.

First: B5
Second: B8
The kon of the first is 3.9-fold higher: 390000 M⁻¹ s⁻¹ for the first, 99000 M⁻¹ s⁻¹ for the second.

First: B9
Second: B10
The kon of the first is 2-fold lower: 131000 M⁻¹ s⁻¹ for the first, 260000 M⁻¹ s⁻¹ for the second.

B11 showed a kon of 215000 M⁻¹ s⁻¹.

Target: T2, RBD of SARS-CoV-2 spike protein S1 (recombinant, construct not stated) (SARS-CoV-2, UniProt P0DTC2 328-533)
T2 construct: also called SARS-COV-2, RBD; RBD-AF647
Assay: ELISA, RBD coated, scFv titrated, anti-Flag HRP

B1: no binding (tested: 200 nM (highest concentration tested)).
B3: no binding (tested: 200 nM (highest concentration tested)).
B5: no binding (tested: 200 nM (highest concentration tested)).
B9: no binding (tested: 200 nM (highest concentration tested)).

Going from B2 to B12, the EC50 rises from 8.73 nM to 75.9 nM (8.7-fold).

Going from B4 to B6, the EC50 falls from 4.99 nM to 2.52 nM (2-fold). The second is the more potent here.

First: B7
Second: B8
The EC50 of the first is 8.9-fold lower: 0.649 nM for the first, 5.77 nM for the second. The first is the more potent here.

B10 and B11 are within 1.5-fold of each other in EC50: 0.818 nM for the first, 0.663 nM for the second.

Target: T3, SARS-CoV-2-RBD (328-533)-Fc (SARS-CoV-2)
T3 construct: also called RBD-Fc
Assay: SPR (Biacore T200), RBD captured on anti-human Fc chip, scFv injected

B12 and B6 are within 1.5-fold of each other in Kd: 69.5 nM for the first, 69.4 nM for the second.

First: B7
Second: B8
The Kd of the first is 5.1-fold lower: 6.14 nM for the first, 31.4 nM for the second. The first binds more tightly here.

With B10 the Kd was 4.4 nM.

B12 and B6 are within 1.5-fold of each other in koff: 0.00242 s⁻¹ for the first, 0.00191 s⁻¹ for the second.

B7 and B8 are within 1.5-fold of each other in koff: 0.00302 s⁻¹ for the first, 0.00265 s⁻¹ for the second.

For B10, the koff was 0.0011 s⁻¹.

B12 and B6 are within 1.5-fold of each other in kon: 34900 M⁻¹ s⁻¹ for the first, 27500 M⁻¹ s⁻¹ for the second.

Going from B7 to B8, the kon falls from 491000 M⁻¹ s⁻¹ to 84300 M⁻¹ s⁻¹ (5.8-fold).

B10 gave a kon of 251000 M⁻¹ s⁻¹.

Target: T1, S1 protein of SARS-CoV-2 (recombinant, …)
Assay: not given

For B8, the IC50 was 38.4 nM.
